Biological target: BFIV21FLAG: BFIV21 with the FLAG epitope on the amino terminal end, expressed on RP9 cells (chicken)
Test: indirect immunofluorescence, flow cytometry on RP9-BFIV21FLAG cells (RP9-BFIV21: 21; RP9: 20)

Substance: FLAG-specific monoclonal antibody M2 (Kodak-IBI) (tool reagent)
- log fluorescent mean channel number (mean log fluorescent channel number): 191

Source: US6075125
